According to US20210070881A1:

Target: cellular BACE1 in CHOK1-huAPP cells
Test: cell-based or functional assay

cellular IC50 (human Aβ40, CHO-huAPP cells): 0.037 µM
maximum percent Aβ reduction compared to untreated control: 83%
B1: Clone35.23.4:Control IgG (anti-RSV)/2H8 (bispecific antibody, part only; not given: Anti-RSV arm; TfR-binding Fc, V domains shown, part only)
VH: QVQLVQSGAEVKKPGASVKVSCKASGYTFTNFWIHWVRQAPGQGLEWMGMIDPSSSYTKYNQKFKARATLTVDTSTSTVYMELSSLRSEDTAVYYCARSGASLPYWGQGTLVTVSS
VL: DIQMTQSPSSLSASVGDRVTITCKASQDVGRNVAWYQQKPGKSPKSLIYSASHYYSGVPSRFSGSGSGTDFTLTISSLQPEDFATYFCQQYYSYPYTFGQGTKVEIK
